Values belong to the binder of their own block, whether it stands above or below them. Where no end group is shown, it is not given here. [ ]: non-standard residue; d: D form. pGlu = O=C1CC[C@@H](C(=O)O)N1
Key:
[1] = biological target: T1, FLT3xCD3 TCE SEQ ID NO 93; test: KinExA equilibrium in solution, KD relative to peptide concentration, TCE 125 pM
T1 construct: Single-chain scFv-scFv-scFc T cell engager; also called FLT3×CD3ε TCE; FLT3_7 A8xCD3-scFc Bispecific HLE molecule

[2] = biological target: T1, FLT3xCD3 TCE SEQ ID NO 93; test: KinExA equilibrium in solution, KD relative to peptide concentration, TCE 250 pM; alias in this row reads 20 k Linear Thioether
scFv region of I2C = biological target: T2, scFv region of I2C; test: co-crystal structure used as input for the modelling
T2 construct: also called VH-VL of I2C

Kd [1]: 12.2 pM | Kd [2]: 153 pM
Binder: [pGlu]DGNEELKGK-OH (also: Lys 10 side chain linked via thioether (acetamide) to 4-arm 20 kDa PEG, TCE masking molecule) [73135-2]

binding result (scFv region of I2C): binds
B1: pE-DGNEELK (peptide)
peptide: [pGlu]DGNEELK
notes: Position 1 is written E for pE; also called CD3ε peptide
